A short description of data set [1]: Chemical stability of insulin derivatives in 2 mM phosphate (SEC-HPLC and RP-HPLC). It counts as physicochemical. The settings on record: 4 weeks 37° C. minus 5° C. start sample; for Chemical degradation (%) (4 weeks 37° C.- 0 weeks 5° C.): pH 7.5, RP-HPLC; for HMWP Formation (%) (4 weeks 37° C.- 0 weeks 5° C.): pH 7.5, SEC-HPLC. On the procedure: Chemical stability of an insulin derivative is assessed after incubating insulin derivative in 2 mM phosphate, pH=7.5 at 37° C. for up to 8 weeks. Formation of high molecular weight products (HMWP) is determined by SEC HPLC analysis after 0, 2, 4 and optionally 8 weeks. The results of the SEC method are given as a difference between HMWP formation at 37° C. and 5° C. start sample as a percentage of total absorbance at 215 nm. Chemical degradation products are determined by RP HPLC analysis after 0, 2, 4 and optionally 8 weeks. The results of the RP method are given as a difference between chemical degradation observed at 37° C. and 5° C. start sample as a percentage of total absorbance at 215 nm.
• Solvent: 500 mM NaCl, 10 mM NaH2PO4, 5 mM H3PO4, 50% (v/v) 2-propanol • Flow: 0.5 ml/min • Run time: 30 min • UV Detection: 215 nm • Column: Insulin HMWP column from Waters 7.8×300 mm • Temperature: 50° C.
• Solvent A: 0.09M phosphate buffer pH 3.6 (di-ammoniumhydrogenphosphate), 10% MeCN (v/v) • Solvent B: 80% MeCN (v/v %) • Flow: 0.3 ml/min • Runtime: 33 min • UV Detection: 215 nm • Column: Waters Acquity BEH130 C18 Column 1.7 μm, 150×2.1 mm • Temperature: 50° C. • Gradient: […]

The target of data set [2] is T1, human insulin receptor (Homo sapiens, UniProt P06213). The data set can be described thus: Insulin receptor affinity, SPA assay with […] HSA in binding buffer. Conditions: relative to the affinity of human insulin. As for the experimental part: (§1) SPA-PVT antibody-binding beads, anti-mouse reagent (Amersham Bio-sciences, Cat No. PRNQ0017) are mixed with 25 ml of binding buffer (100 mM HEPES pH 7.8; 100 mM sodium chloride, 10 mM MgSO4, 0.025% Tween-20). […] A total of 100 μl reagent mix is then added to each well in the Packard Optiplate and a dilution series of the N-terminally modified insulin is made in the Optiplate from appropriate samples. The samples are then incubated for 16 hours while gently shaken. The phases are the then separated by centrifugation for 1 min and the plates counted in a Topcounter.
T1 sequence (P06213 28-746 isoform P06213-2 limits assumed): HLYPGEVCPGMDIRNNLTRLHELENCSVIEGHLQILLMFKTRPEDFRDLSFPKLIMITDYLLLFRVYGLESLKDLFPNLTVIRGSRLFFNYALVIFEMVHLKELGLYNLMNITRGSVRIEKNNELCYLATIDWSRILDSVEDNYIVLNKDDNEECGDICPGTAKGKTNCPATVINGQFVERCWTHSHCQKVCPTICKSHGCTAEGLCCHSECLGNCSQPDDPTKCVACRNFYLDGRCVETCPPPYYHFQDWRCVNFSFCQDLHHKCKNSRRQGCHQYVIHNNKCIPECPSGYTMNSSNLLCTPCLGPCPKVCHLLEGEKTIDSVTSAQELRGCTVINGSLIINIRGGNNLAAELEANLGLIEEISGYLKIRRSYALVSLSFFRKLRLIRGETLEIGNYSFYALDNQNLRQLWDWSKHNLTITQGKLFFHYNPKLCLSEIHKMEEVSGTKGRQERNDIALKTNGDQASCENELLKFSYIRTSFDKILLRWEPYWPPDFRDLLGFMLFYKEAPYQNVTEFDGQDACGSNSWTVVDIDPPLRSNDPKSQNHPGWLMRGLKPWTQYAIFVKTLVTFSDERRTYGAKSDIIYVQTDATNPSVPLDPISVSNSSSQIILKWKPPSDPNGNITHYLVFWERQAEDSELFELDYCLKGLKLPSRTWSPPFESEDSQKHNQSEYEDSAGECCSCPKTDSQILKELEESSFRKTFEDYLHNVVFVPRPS
T1 sequence (P06213 763-1382 partner limits assumed): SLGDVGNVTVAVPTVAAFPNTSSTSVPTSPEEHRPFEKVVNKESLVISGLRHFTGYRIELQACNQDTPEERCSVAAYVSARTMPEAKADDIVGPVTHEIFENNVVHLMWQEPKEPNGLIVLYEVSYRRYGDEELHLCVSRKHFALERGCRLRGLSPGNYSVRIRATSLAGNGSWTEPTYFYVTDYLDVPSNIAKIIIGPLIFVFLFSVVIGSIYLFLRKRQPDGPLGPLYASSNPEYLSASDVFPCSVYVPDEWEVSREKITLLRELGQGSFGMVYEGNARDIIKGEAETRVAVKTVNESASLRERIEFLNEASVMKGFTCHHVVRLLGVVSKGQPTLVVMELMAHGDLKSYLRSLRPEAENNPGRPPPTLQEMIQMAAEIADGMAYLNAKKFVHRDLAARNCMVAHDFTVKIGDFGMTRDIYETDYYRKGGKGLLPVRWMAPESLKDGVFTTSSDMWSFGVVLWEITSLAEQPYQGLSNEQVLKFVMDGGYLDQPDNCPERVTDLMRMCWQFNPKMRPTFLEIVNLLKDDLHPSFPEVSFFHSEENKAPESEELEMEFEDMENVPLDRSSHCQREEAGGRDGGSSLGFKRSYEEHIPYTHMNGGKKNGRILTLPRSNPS

Data set [3] is described as follows: Hydrophobicity by isocratic reverse phase HPLC. It counts as physicochemical. Conditions: k'rel, isocratic RP-HPLC, pH 7.3, human insulin = 1. As for the experimental part: The hydrophobicity of an N-terminally modified insulin is found by reverse phase HPLC run under isocratic conditions. […] The hydrophobicity, k′rel, is calculated as: k′relderiv=((tderiv−t0)(tref−t0)*k′relref. Using HI as reference: k′relref=k′relHI=1. The void time of the HPLC system, t0, is determined by injecting 5 μl of 0.1 mM NaNO3. Running conditions:
Column: Lichrosorb RP-C18, 5 μm, 4×250 mm
Buffer A: 0.1 M natrium phosphate pH 7.3, 10 vol % CH3CN
After running an initial gradient, the isocratic level for running the derivative and reference (for example HI) is chosen, and the elution times of the derivative and reference under isocratic conditions are used in the above equation to calculate k′relderiv.

In data set [4] the target is T1, human insulin receptor. The data set can be described thus: Insulin receptor affinity, SPA antibody capture assay (0% HSA). It counts as binding. The settings on record: relative to the affinity of human insulin. As for the experimental part: as §1

The source of these data is patent publication US20140357838A1, “N-Terminally Modified Insulin Derivatives” (Novo Nordisk A/S, priority 2011, published 2014).

Starred links: 1 amine or outer side, 2 acyl side, 3 side chain; linkers in the order of their positions; H or OH if unused. Positions of bridges follow the written chain, without caps; N, C: chain ends. Groups on a side chain read outwards from the residue. Chains are numbered I, II in the order given. No end group written: not given here. *: point of attachment. Phe(Nα-CONH2) = NC(=O)N[C@@H](Cc1ccccc1)C(=O)*; C20 diacid = O=C(O)CCCCCCCCCCCCCCCCCCC(=O)*; C18 diacid = O=C(O)CCCCCCCCCCCCCCCCC(=O)*; NMe2Phe = CN(C)[C@@H](Cc1ccccc1)C(=O)*; γGlu = O=C(O)[C@H](CCC(=O)[*:2])N[*:1]; Hydantoyl = NC(=O)NCC(=O)*; AEEA = NCCOCCOCC(=O)O; Me2Gly = CN(C)CC(=O)*

With “I: Me2Gly-VCQHLCGSHLVEALHLVCGERGFHYTPK([γGlu-C18 diacid]) / II: Me2Gly-IVEQCCTSCCSLEQLENYCN (disulfide I:2-II:9, I:6-II:6, I:18-II:19, II:5-II:10) [Example 8, A1(N^α,N^α-Dimethyl), A10C, A14E, B1G(N^α,N^α-dimethyl), B3C, B16H, B25H, B29K(N^εoctadecanedioyl-gGlu), desB30 Human Insulin]”, in data set [1], the “Chemical degradation (%) (4 weeks 37° C.- 0 weeks 5° C.)” value (from here on “Chemical degradation (%)”) is reported as 66.4% and the “HMWP Formation (%) (4 weeks 37° C.- 0 weeks 5° C.)” value (from here on “HMWP Formation (%)”) is given as 54.5%.
As to “I: Me2Gly-VCQHLCGSHLVEALYLVCGERGFFYPK([AEEA-AEEA-γGlu-C18 diacid]) / II: Me2Gly-IVEQCCTSCCSLEQLENYCN (disulfide I:2-II:9, I:6-II:6, I:18-II:19, II:5-II:10) [Example 14, A1(N^α,N^α-Dimethyl), A10C, A14E, B1G(N^α,N^α-dimethyl), B3C, desB27, B29K(N^εoctadecanedioyl-gGlu-2×OEG), desB30 Human Insulin]”, the “HMWP Formation (%)” value in data set [1] is reported as 0.0%.
Consider “I: Me2Gly-VCQHLCGSHLVEALYLVCGERGFFYPK([γGlu-C18 diacid]) / II: Me2Gly-IVEQCCTSCCSLEQLENYCN (disulfide I:2-II:9, I:6-II:6, I:18-II:19, II:5-II:10) [Example 9, A1(N^α,N^α-Dimethyl), A10C, A14E, B1G(N^α,N^α-dimethyl), B3C, desB27, B29K(N^εoctadecanedioyl-gGlu), desB30 Human Insulin]”, for which the “Chemical degradation (%)” value in data set [1] came to 5.7%.
Take “I: Me2Gly-VCQHLCGSHLVEALYLVCGERGFHYPK([AEEA-AEEA-γGlu-C18 diacid]) / II: Me2Gly-IVEQCCTSCCSLEQLENYCN (disulfide I:2-II:9, I:6-II:6, I:18-II:19, II:5-II:10) [Example 15, A1(N^α,N^α-Dimethyl), A10C, A14E, B1G(N^α,N^α-dimethyl), B3C, B25H, desB27, B29K(N^εoctadecanedioyl-gGlu-2×OEG), desB30 Human Insulin]”: in data set [1], the “Chemical degradation (%)” value is recorded as 10.4% and the “HMWP Formation (%)” value is given as 1.2%.
Turning to “I: Me2Gly-VCQHLCGSHLVEALYLVCGERGFHYPK([γGlu-C18 diacid]) / II: Me2Gly-IVEQCCTSCCSLEQLENYCN (disulfide I:2-II:9, I:6-II:6, I:18-II:19, II:5-II:10) [Example 7, A1(N^α,N^α-Dimethyl), A10C, A14E, B1G(N^α,N^α-dimethyl), B3C, B25H, desB27, B29K(N^εoctadecanedioyl-gGlu), desB30 Human Insulin]”, in data set [1], the “Chemical degradation (%)” value amounted to 0.6% and the “HMWP Formation (%)” value is 0.4%.
In the case of “I: Me2Gly-VCQHLCGSHLVEALYLVCGERGFHYTPK([AEEA-AEEA-γGlu-C18 diacid]) / II: Me2Gly-IVEQCCTSCCSLEQLENYCN (disulfide I:2-II:9, I:6-II:6, I:18-II:19, II:5-II:10) [Example 16, A1(N^α,N^α-Dimethyl), A10C, A14E, B1G(N^α,N^α-dimethyl), B3C, B25H, B29K(N^εoctadecanedioyl-gGlu-2×OEG), desB30 Human Insulin]”, in data set [1], the “Chemical degradation (%)” value is 58.0% and the “HMWP Formation (%)” value was determined as 42.7%.
Regarding “I: NMe2Phe-VCQHLCGSHLVEALHLVCGERGFHYTPK([AEEA-AEEA-γGlu-C18 diacid]) / II: Me2Gly-IVEQCCTSCCSLEQLENYCN (disulfide I:2-II:9, I:6-II:6, I:18-II:19, II:5-II:10) [Example 13, A1(N^α,N^α-Dimethyl), A10C, A14E, B1(N^α,N^α-dimethyl), B3C, B16H, B25H, B29K(N^εoctadecanedioyl-gGlu-2×OEG), desB30 Human Insulin]”, in data set [1], the “Chemical degradation (%)” value is reported as 9.8%.
As to “I: NMe2Phe-VCQHLCGSHLVEALHLVCGERGFHYTPK([γGlu-C18 diacid]) / II: Me2Gly-IVEQCCTSCCSLEQLENYCN (disulfide I:2-II:9, I:6-II:6, I:18-II:19, II:5-II:10) [Example 4, A1(N^α,N^α-Dimethyl), A10C, A14E, B1(N^α,N^α-dimethyl), B3C, B16H, B25H, B29K(N^εoctadecanedioyl-gGlu), desB30 Human Insulin]”, in data set [1], the “Chemical degradation (%)” value is listed as 8.7% and the “HMWP Formation (%)” value is listed as −0.4%.
As to “I: NMe2Phe-VCQHLCGSHLVEALYLVCGERGFHYPK([γGlu-C20 diacid]) / II: Me2Gly-IVEQCCTSCCSLEQLENYCN (disulfide I:2-II:9, I:6-II:6, I:18-II:19, II:5-II:10) [Example 18, A1(N^α,N^α-Dimethyl), A10C, A14E, B1(N^α,N^α-dimethyl), B3C, B25H, desB27, B29K(N^εeicosanedioyl-gGlu), desB30 Human Insulin]”, the “Relative IR-A affinity (@ […] HSA) (%)e” value at human insulin receptor [2] is listed as 0.02%. Besides, in data set [1], the “Chemical degradation (%)” value was found to be 4.2% and the “HMWP Formation (%)” value is recorded as 5.1%. Further, in data set [3], the “Hydrophobicity rel. to human insulin” value amounted to 0.12. Also, on human insulin receptor [4], the “Relative IR-A affinity (@ 0% HSA) (%)” value was 0.72%.
On to “I: NMe2Phe-VCQHLCGSHLVEALYLVCGERGFHYTPK([AEEA-AEEA-γGlu-C18 diacid]) / II: Me2Gly-IVEQCCTSCCSLEQLENYCN (disulfide I:2-II:9, I:6-II:6, I:18-II:19, II:5-II:10) [Example 12, A1(N^α,N^α-Dimethyl), A10C, A14E, B1(N^α,N^α-dimethyl), B3C, B25H, B29K(N^εoctadecanedioyl-gGlu-2×OEG), desB30 Human Insulin]”, for which the “Hydrophobicity rel. to human insulin” value in data set [3] amounted to 0.077.
For the substance “I: NMe2Phe-VCQHLCGSHLVEALYLVCGERGFHYTPK([γGlu-C18 diacid]) / II: Me2Gly-IVEQCCTSCCSLEQLENYCN (disulfide I:2-II:9, I:6-II:6, I:18-II:19, II:5-II:10) [Example 3, A1(N^α,N^α-Dimethyl), A10C, A14E, B1(N^α,N^α-dimethyl), B3C, B25H, B29K(N^εoctadecanedioyl-gGlu), desB30 Human Insulin]”, the “Chemical degradation (%)” value in data set [1] was found to be 3.4%. Further, in data set [3], the “Hydrophobicity rel. to human insulin” value is listed as 0.065.
For the substance “I: NMe2Phe-VCQHLCGSHLVEALYLVCGERGFHYTPK([γGlu-C20 diacid]) / II: Me2Gly-IVEQCCTSCCSLEQLENYCN (disulfide I:2-II:9, I:6-II:6, I:18-II:19, II:5-II:10) [Example 19, A1(N^α,N^α-Dimethyl), A10C, A14E, B1(N^α,N^α-dimethyl), B3C, B25H, B29K(N^εeicosanedioyl-gGlu), desB30 Human Insulin]”, in data set [1], the “Chemical degradation (%)” value came out at 11.7% and the “HMWP Formation (%)” value was 34.6%.
Take “I: {Phe(Nα-CONH2)}-VCQHLCGSHLVEALYLVCGERGFFYPK([γGlu-C18 diacid]) / II: Hydantoyl-IVEQCCTSCCSLEQLENYCN (disulfide I:2-II:9, I:6-II:6, I:18-II:19, II:5-II:10) [Example 36, A1(N^α-Carbamoyl), A10C, A14E, B1(N^α-carbamoyl), B3C, desB27, B29K(N^εoctadecanedioyl-gGlu), desB30 Human Insulin]”: the “Relative IR-A affinity (@ […] HSA) (%)e” value on human insulin receptor [2] is reported as 0.01%. Besides, the “Relative IR-A affinity (@ 0% HSA) (%)” value on human insulin receptor [4] amounted to 0.7%.
